Numbering of substitutions follows the chain as printed. Names may count otherwise.

Data on two proteins can be found in paper doi:10.1101/2021.08.28.458008v1.

Substrate in this data set: O=C1O[C@H]([C@@H](O)CO)C(=O)C1=O
Briefly: purified protein. The following applies: 2 mM GSH.

B1: EcGrx2 (Escherichia coli K-12) (protein)
chain: MKLYIYDHCPYCLKARMIFGLKNIPVELHVLLNDDAETPTRMVGQKQVPILQKDDSRYMPESMDIVHYVDKLDGKPLLTGKRSPAIEEWLRKVNGYANKLLLPRFAKSAFDEFSTPAARKYFVDKKEASAGNFADLLAHSDGLIKNISDDLRALDKLIVKPNAVNGELSEDDIQLFPLLRNLTLVAGINWPSRVADYRDNMAKQTQINLLSSMAI
On to B1, for which, for the setting “50 mM sodium phosphate pH 7.4”, the Km came out at 2879 ± 640.4 µM; the kcat – broadly, the number of substrate molecules converted per active site and unit of time at saturation – was found to be 3.8245 s⁻¹.

B2: EcGrx2 (Escherichia coli K-12; C12S/C9S) (protein)
chain: B1 chain with C9S, C12S
Consider B2, for which the Km (50 mM sodium phosphate pH 7.4, His6-tagged mutant) is reported as 968 (±462.3) µM.
